The target of this data set is T1, AtHB13-GST (Arabidopsis thaliana, UniProt Q8LC03 1-294).
T1 sequence: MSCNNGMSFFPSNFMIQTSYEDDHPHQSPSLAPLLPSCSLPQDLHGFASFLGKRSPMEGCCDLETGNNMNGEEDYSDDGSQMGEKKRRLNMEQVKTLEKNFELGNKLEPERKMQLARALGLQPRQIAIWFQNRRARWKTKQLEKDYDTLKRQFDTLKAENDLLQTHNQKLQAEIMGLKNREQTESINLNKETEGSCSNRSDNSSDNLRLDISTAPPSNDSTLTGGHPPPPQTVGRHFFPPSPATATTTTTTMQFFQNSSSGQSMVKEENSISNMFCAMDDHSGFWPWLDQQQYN
Briefly: EMSA; 200x unlabeled same-sequence competitor also run (lane 3); EMSA as in Wu et al. 2012, Odyssey Infrared EMSA kit (LI-COR); buffer, salt, pH and temperature not stated. The conditions noted are these: protein: recombinant; tags: GST (pDEST24, C-terminal fusion); chain copies: 2; label: 5'-DY682; blunt.

B1: JUB1 promoter 40-bp fragment (AtHB13BS-L) (dsDNA)
DNA 1: CTATAAAATTAGTTGCAATAAATGATTTAATTATTTTCCG
DNA 2: CGGAAAATAATTAAATCATTTATTGCAACTAATTTTATAG
For B1, the binding result was “binds”.

For the origin of these results see PMC5736527, “JUNGBRUNNEN1 Confers Drought Tolerance Downstream of the HD-Zip I Transcription Factor AtHB13”.
